Reference: patent US6140466
pKd: −log10 of the molar value.

Columns and labels:
[1] = target: Zif268 variant A14 finger 3 helix residues changed (FIG. 9) (synthetic (Zif268 variant)) (UniProt Q6NTY6); experiment: SPR
[2] = target: Zif268 variant C9 finger 1 helix residues changed (FIG. 9) (synthetic (Zif268 variant)) (UniProt Q6NTY6); experiment: SPR; conditions: equivalent to Zif268
[3] = system: Zif268 variant G4 finger 2 helix residues changed (FIG. 9) (synthetic (Zif268 variant)); experiment: SPR
[4] = system: Zif268 variant G6 finger 2 helix residues changed (FIG. 9) (synthetic (Zif268 variant)); experiment: SPR
[5] = system: MBP-C7-C7 (six-finger) (synthetic (Zif268 variant, mouse)); experiment: EMSA
[6] = system: MBP-Sp1C-C7 (six-finger) (synthetic (Sp1C/Zif268 variant)); experiment: EMSA
[7] = target: MBP-Sp1C (synthetic (human Sp1 variant)) (UniProt P08047); experiment: EMSA; conditions: 0.1 mM ZnCl2, RT
Sequence of MBP-Sp1C (synthetic (human Sp1 variant)) (P08047 626-708, change not shown): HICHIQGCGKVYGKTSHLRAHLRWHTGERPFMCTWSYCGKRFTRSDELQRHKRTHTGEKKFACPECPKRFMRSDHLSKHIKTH

[8] = system: C7-C7-VP16 (synthetic (Zif268 variant)); experiment: cell_activity; conditions: HeLa luciferase reporter
[9] = target: Zif268 displayed on phage (Mus musculus) (UniProt P08046); experiment: SELEX; conditions: phage panning, same level as BSA
[10] = 0.1 mM ZnCl2, 100 mM KCl, poly(dI-dC), RT
[11] = 9 bp half-site, 0.1 mM ZnCl2, RT

Sequence of Zif268 variant C9 finger 1 helix residues changed (FIG. 9) (synthetic (Zif268 variant)) (Q6NTY6 whole entry, change not shown): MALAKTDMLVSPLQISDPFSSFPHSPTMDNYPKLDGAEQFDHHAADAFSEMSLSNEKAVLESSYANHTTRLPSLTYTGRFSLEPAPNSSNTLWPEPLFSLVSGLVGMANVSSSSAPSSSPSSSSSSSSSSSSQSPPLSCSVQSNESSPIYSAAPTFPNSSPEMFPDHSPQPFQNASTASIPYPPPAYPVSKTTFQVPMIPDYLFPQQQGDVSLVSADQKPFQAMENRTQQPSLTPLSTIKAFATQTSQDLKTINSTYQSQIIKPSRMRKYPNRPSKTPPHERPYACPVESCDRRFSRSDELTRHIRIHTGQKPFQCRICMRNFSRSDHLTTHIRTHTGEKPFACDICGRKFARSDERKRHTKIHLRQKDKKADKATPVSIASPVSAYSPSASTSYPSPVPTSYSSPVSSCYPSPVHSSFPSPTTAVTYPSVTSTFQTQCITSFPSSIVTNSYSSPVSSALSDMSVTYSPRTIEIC
Sequence of Zif268 variant A14 finger 3 helix residues changed (FIG. 9) (synthetic (Zif268 variant)) (Q6NTY6 whole entry, change not shown): as above

## CCTGCGTGGGCGCCCTTTTGGGCGCCCACGCAGG [Z268N consensus hairpin]
[1]
  binding signal (fold lower affinity than Zif268): 2
[2]
  binding signal (fold of Zif268 affinity): 1
[3]
  binding signal (fold weaker than TTG site): 4
[4]
  binding signal (fold weaker than TTG site): 4

## CCTGCGTTGGCGCCCTTTTGGGCGCCAACGCAGG [TTG finger 2 hairpin (HIV-1 subsite)]
[3]; equivalent to Zif268 on its consensus
  binding signal (fold of Zif268-consensus affinity): 1
[4]; specificity by on-rate
  binding signal (fold of Zif268-consensus affinity): 1

## GATGTATGTAGCGGCGGCGGCGGCGGCGTAAGTAATGC (double strand) [(GCG)6 site probe]
[5]; 0.1 mM ZnCl2, RT
  pKd: 7.76

## GATGTATGTAGCGTGGGCGGCGTGGGCGTAAGTAATGC (double strand) [C7-C7 site probe]
[5]; [10]
  pKd: 9.34
[6]; 0.1 mM ZnCl2, RT
  pKd: 8.74

## GATGTATGTAGCGTGGGCGGGGGCGGGGTAAGTAATGC (double strand) [Sp1C-C7 site probe]
[5]; [10]
  pKd: 8.62
[6]; [10]
  pKd: 9.26

## GATGTATGTAGCGTGGGCGTAAGTAATGC (double strand) [C7 site probe]
[5]; [11]
  pKd: 8.21
[6]; [11]
  pKd: 8.31

## GATGTATGTAGGGGCGGGGTAAGTAATGC (double strand) [Sp1C site probe]
[7]
  pKd: 7.39
[6]; [11]
  pKd: 7.56

## GCGTGGGCG (double strand) [6x C7 site SV40 promoter reporter]
[8]
  activity (fold activation): 3

## GCGTGGGCGGCGTGGGCG (double strand) [6x C7-C7 site SV40 promoter reporter]
[8]
  activity (fold activation): > 300

## GCGTGGGCGGGGGCGGGG (double strand) [6x Sp1C-C7 site SV40 promoter reporter]
[8]
  activity (fold activation): 3

## TFIIIA fingers 1-3 site (panning)
[9]
  binding signal (fold less than consensus): 9
